Measurements published in US20210246166A1 (Bayer, published 2021).
Blank lines part the entries; values can stand above or below the binder they belong to. Numbered stars: 1 amine (or outer) side, 2 acyl side, 3 side chain; on linkers, the order of the positions; unused ones are H or OH. Bridge positions count the residues as written; N and C are the ends. Square brackets hold non-standard residues; d marks the D form. Ends that are not written are not given here. (N-Benzyl)D = (2S)-2-Amino-4-(benzylamino)-4-oxobutanecarboxylic acid, O=C(C[C@H](N[*:1])C(=O)[*:2])NCc1ccccc1; X10 = (2R)‑2‑amino‑3‑(trifluoromethylsulfanyl)propanoic acid, O=C([C@H](CSC(F)(F)F)N[*:1])[*:2]; (S)‑3‑(2H-tetrazol-5-yl)propanoic acid = (S)-3-(2H-tetrazol-5-yl)propanoic acid; Phe(2,5-diF) = O=C([C@H](Cc1cc(F)ccc1F)N[*:1])[*:2]; PEG9 = NCCOCCOCCOCCOCCOCCOCCOCCOCCOCCC(=O)O; Pro(4-spirocPr) = O=C(O)[C@@H]1CC2(CC2)CN1; Oic = O=C(O)[C@@H]1C[C@@H]2CCCC[C@@H]2N1; tBuAla = CC(C)(C)C[C@H](N)C(=O)O; Pen = CC(C)(S)[C@H](N)C(=O)O; NMeC = CN[C@@H](CS)C(=O)O; NMeA = CN[C@@H](C)C(=O)O; Nle = CCCC[C@H](N)C(=O)O; Orn = NCCC[C@H](N)C(=O)O; PEG2 = NCCOCCOCCC(=O)O; dβPro = D-beta-Proline; Sar = CNCC(=O)O

What was measured:
Assay in all cases: cell-based or functional assay
[1] = target: T1, recombinant human MASP1 active protease (amino acids 297-699, C-terminal His Tag) (human, UniProt P48740 297-699)
T1 sequence: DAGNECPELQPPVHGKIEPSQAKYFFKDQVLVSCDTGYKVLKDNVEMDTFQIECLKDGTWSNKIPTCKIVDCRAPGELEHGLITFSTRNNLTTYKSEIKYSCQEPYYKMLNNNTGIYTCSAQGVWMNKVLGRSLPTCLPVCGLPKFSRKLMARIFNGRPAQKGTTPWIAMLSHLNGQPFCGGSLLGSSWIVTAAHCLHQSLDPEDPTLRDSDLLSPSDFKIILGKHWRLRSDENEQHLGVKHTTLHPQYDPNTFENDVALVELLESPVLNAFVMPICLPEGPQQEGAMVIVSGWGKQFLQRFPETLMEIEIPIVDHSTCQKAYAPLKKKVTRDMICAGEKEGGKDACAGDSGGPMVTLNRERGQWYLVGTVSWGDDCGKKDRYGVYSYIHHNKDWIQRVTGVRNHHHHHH

[2] = target: recombinant human MASP2 active protease (amino acids 297-686, C-terminal His Tag) (human, UniProt O00187 297-686)
recombinant human MASP2 active protease (amino acids 297-686, C-terminal His Tag), sequence (O00187 other isoform, or with tags, fused parts or gaps limits assumed): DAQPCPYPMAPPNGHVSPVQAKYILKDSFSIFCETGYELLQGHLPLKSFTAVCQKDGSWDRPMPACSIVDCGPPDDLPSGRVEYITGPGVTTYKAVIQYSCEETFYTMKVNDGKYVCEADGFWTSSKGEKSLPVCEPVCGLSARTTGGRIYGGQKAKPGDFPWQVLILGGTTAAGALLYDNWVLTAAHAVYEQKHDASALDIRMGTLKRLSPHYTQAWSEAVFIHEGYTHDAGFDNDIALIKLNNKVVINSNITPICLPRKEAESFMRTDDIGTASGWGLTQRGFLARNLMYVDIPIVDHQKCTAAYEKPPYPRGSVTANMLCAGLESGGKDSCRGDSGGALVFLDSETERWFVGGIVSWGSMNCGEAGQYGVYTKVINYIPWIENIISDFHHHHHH

[3] = target: T2, Recombinant human MASP1 enzyme (fragment corresponding to amino acids 297-699, C-terminal His Tag) (human, UniProt P48740 297-699)
T2 sequence: T1 sequence

Binder: [NMeA]ICSRSLP[Oic]I[Pen]IP[(N-Benzyl)D]-NH2 (disulfide 3-11) [((N-Me)A)-IC+SRSLP-(Oic)-I-(Pen)+IP-((N-Benzyl)D)-NH2]
human MASP1 IC50 [3]: 12 nM

Binder: [Sar]ICSRS[tBuAla]PPI[Pen]IP-{PEG9-NH2} (disulfide 3-11) [((N-Me)G)-IC+SRS-((tBu)A)-PPI-(Pen)+IP-(PEG9(31 atoms))-NH2]
human MASP1 IC50 [1]: 1.8 nM | human MASP2 IC50 [2]: 73 nM

B4: AIC+SRSLP-((6S)-5-Azaspiro[2.4]heptane-6-carboxylic acid)-I-(Pen)+IPD-OH (peptide)
peptide: AICSRSLP[Pro(4-spirocPr)]I[Pen]IPD-OH
modifications: disulfide 3-11; N-terminus assumed
SMILES: CC[C@H](C)[C@H](NC(=O)[C@H](C)N)C(=O)N[C@H]1CSSC(C)(C)[C@@H](C(=O)N[C@H](C(=O)N2CCC[C@H]2C(=O)N[C@@H](CC(=O)O)C(=O)O)[C@@H](C)CC)NC(=O)[C@H]([C@@H](C)CC)NC(=O)[C@@H]2CC3(CC3)CN2C(=O)[C@@H]2CCCN2C(=O)[C@H](CC(C)C)NC(=O)[C@H](CO)NC(=O)[C@H](CCCNC(=N)N)NC(=O)[C@H](CO)NC1=O
human MASP1 IC50 [1]: 1.65 nM | human MASP2 IC50 [2]: 26 nM

B5: AIC+SRS-((tBu)A)-P-((6S)-5-Azaspiro[2.4]heptane-6-carboxylic acid)-I-(Pen)+IPD-OH (peptide)
peptide: AICSRS[tBuAla]P[Pro(4-spirocPr)]I[Pen]IPD-OH
modifications: disulfide 3-11; N-terminus assumed
SMILES: CC[C@H](C)[C@H](NC(=O)[C@H](C)N)C(=O)N[C@H]1CSSC(C)(C)[C@@H](C(=O)N[C@H](C(=O)N2CCC[C@H]2C(=O)N[C@@H](CC(=O)O)C(=O)O)[C@@H](C)CC)NC(=O)[C@H]([C@@H](C)CC)NC(=O)[C@@H]2CC3(CC3)CN2C(=O)[C@@H]2CCCN2C(=O)[C@H](CC(C)(C)C)NC(=O)[C@H](CO)NC(=O)[C@H](CCCNC(=N)N)NC(=O)[C@H](CO)NC1=O
human MASP1 IC50 [1]: 1.57 nM | human MASP2 IC50 [2]: 17.7 nM

Binder: [Sar]ICSRS[tBuAla]PPI[Pen]IP[(S)‑3‑(2H-tetrazol-5-yl)propanoic acid]-NH2 (disulfide 3-11) [((N-Me)G)-IC+SRS-((tBu)A)-PPI-(Pen)+IP-((S)-3-(2H-tetrazol-5-yl)propanoic acid)-NH2]
human MASP1 IC50 [1]: 1.8 nM | human MASP2 IC50 [2]: 36 nM

B6: AIC+SRS-((tBu)A)-P-((6S)-5-Azaspiro[2.4]heptane-6-carboxylic acid)-I-((N-Me)C)+IPD-NH2 (peptide)
peptide: AICSRS[tBuAla]P[Pro(4-spirocPr)]I[NMeC]IPD-NH2
modifications: disulfide 3-11; N-terminus assumed
SMILES: CC[C@H](C)[C@H](NC(=O)[C@H](C)N)C(=O)N[C@H]1CSSC[C@@H](C(=O)N[C@H](C(=O)N2CCC[C@H]2C(=O)N[C@@H](CC(=O)O)C(N)=O)[C@@H](C)CC)N(C)C(=O)[C@H]([C@@H](C)CC)NC(=O)[C@@H]2CC3(CC3)CN2C(=O)[C@@H]2CCCN2C(=O)[C@H](CC(C)(C)C)NC(=O)[C@H](CO)NC(=O)[C@H](CCCNC(=N)N)NC(=O)[C@H](CO)NC1=O
human MASP1 IC50 [1]: 1.8 nM | human MASP2 IC50 [2]: 40 nM

B7: ((N-Me)G)-IC+SRS-((2,5-Difluoro)F)-PPI-(Pen)+IPD-OH (peptide)
peptide: [Sar]ICSRS[Phe(2,5-diF)]PPI[Pen]IPD-OH
modifications: disulfide 3-11; N-terminus assumed
SMILES: CC[C@H](C)[C@H](NC(=O)CNC)C(=O)N[C@H]1CSSC(C)(C)[C@@H](C(=O)N[C@H](C(=O)N2CCC[C@H]2C(=O)N[C@@H](CC(=O)O)C(=O)O)[C@@H](C)CC)NC(=O)[C@H]([C@@H](C)CC)NC(=O)[C@@H]2CCCN2C(=O)[C@@H]2CCCN2C(=O)[C@H](Cc2cc(F)ccc2F)NC(=O)[C@H](CO)NC(=O)[C@H](CCCNC(=N)N)NC(=O)[C@H](CO)NC1=O
human MASP1 IC50 [3]: 18 nM

B8: ((N-Me)A)-IC+SRS-((tBu)A)-P-(Oic)-I-(Pen)+I-NH2 (peptide)
peptide: [NMeA]ICSRS[tBuAla]P[Oic]I[Pen]I-NH2
modifications: disulfide 3-11; N-terminus assumed
SMILES: CC[C@H](C)[C@H](NC(=O)[C@H]1NC(=O)[C@H]([C@@H](C)CC)NC(=O)[C@@H]2C[C@@H]3CCCC[C@@H]3N2C(=O)[C@@H]2CCCN2C(=O)[C@H](CC(C)(C)C)NC(=O)[C@H](CO)NC(=O)[C@H](CCCNC(=N)N)NC(=O)[C@H](CO)NC(=O)[C@@H](NC(=O)[C@@H](NC(=O)[C@H](C)NC)[C@@H](C)CC)CSSC1(C)C)C(N)=O
human MASP1 IC50 [1]: 1.8 nM | human MASP2 IC50 [2]: 76 nM

Binder: [Sar]ICSRS[tBuAla]PPI[Pen]IP[PEG2]-NH2 (disulfide 3-11; also: HCl salt) [((N-Me)G)-IC+SRS-((tBu)A)-PPI-(Pen)+IP-(PEG1(10 atoms))-NH2 (HCl salt)]
human MASP1 IC50 [1]: 1.7 nM | human MASP2 IC50 [2]: 31 nM

B10: AIC+SRS-((tBu)A)-P-((6S)-5-Azaspiro[2.4]heptane-6-carboxylic acid)-I-(Pen)+IPD-NH2 (peptide)
peptide: AICSRS[tBuAla]P[Pro(4-spirocPr)]I[Pen]IPD-NH2
modifications: disulfide 3-11; N-terminus assumed
SMILES: CC[C@H](C)[C@H](NC(=O)[C@H](C)N)C(=O)N[C@H]1CSSC(C)(C)[C@@H](C(=O)N[C@H](C(=O)N2CCC[C@H]2C(=O)N[C@@H](CC(=O)O)C(N)=O)[C@@H](C)CC)NC(=O)[C@H]([C@@H](C)CC)NC(=O)[C@@H]2CC3(CC3)CN2C(=O)[C@@H]2CCCN2C(=O)[C@H](CC(C)(C)C)NC(=O)[C@H](CO)NC(=O)[C@H](CCCNC(=N)N)NC(=O)[C@H](CO)NC1=O
human MASP1 IC50 [1]: 1.83 nM | human MASP2 IC50 [2]: 24.5 nM

Next, values leading:

human MASP1 IC50 [1]: 1.5 nM | human MASP2 IC50 [2]: 56 nM
B1: (Nle)-IC+SRS-((tBu)A)-PPI-((N-Me)C)+I-NH2 (peptide)
peptide: [Nle]ICSRS[tBuAla]PPI[NMeC]I-NH2
modifications: disulfide 3-11; N-terminus assumed
SMILES: CCCC[C@H](N)C(=O)N[C@H](C(=O)N[C@H]1CSSC[C@@H](C(=O)N[C@H](C(N)=O)[C@@H](C)CC)N(C)C(=O)[C@H]([C@@H](C)CC)NC(=O)[C@@H]2CCCN2C(=O)[C@@H]2CCCN2C(=O)[C@H](CC(C)(C)C)NC(=O)[C@H](CO)NC(=O)[C@H](CCCNC(=N)N)NC(=O)[C@H](CO)NC1=O)[C@@H](C)CC

human MASP1 IC50 [1]: 1.7 nM | human MASP2 IC50 [2]: 120 nM
B2: AIC+SRS-((tBu)A)-PPIC+I-NH2 (peptide)
peptide: AICSRS[tBuAla]PPICI-NH2
modifications: disulfide 3-11; N-terminus assumed
SMILES: CC[C@H](C)[C@H](NC(=O)[C@@H]1CSSC[C@H](NC(=O)[C@@H](NC(=O)[C@H](C)N)[C@@H](C)CC)C(=O)N[C@@H](CO)C(=O)N[C@@H](CCCNC(=N)N)C(=O)N[C@@H](CO)C(=O)N[C@@H](CC(C)(C)C)C(=O)N2CCC[C@H]2C(=O)N2CCC[C@H]2C(=O)N[C@@H]([C@@H](C)CC)C(=O)N1)C(N)=O

human MASP1 IC50 [1]: 1.65 nM | human MASP2 IC50 [2]: 120 nM
B3: KIC+SRS-((tBu)A)-PPI-((N-Me)C)+IPD-NH2 (peptide)
peptide: KICSRS[tBuAla]PPI[NMeC]IPD-NH2
modifications: disulfide 3-11; N-terminus assumed
SMILES: CC[C@H](C)[C@H](NC(=O)[C@@H](N)CCCCN)C(=O)N[C@H]1CSSC[C@@H](C(=O)N[C@H](C(=O)N2CCC[C@H]2C(=O)N[C@@H](CC(=O)O)C(N)=O)[C@@H](C)CC)N(C)C(=O)[C@H]([C@@H](C)CC)NC(=O)[C@@H]2CCCN2C(=O)[C@@H]2CCCN2C(=O)[C@H](CC(C)(C)C)NC(=O)[C@H](CO)NC(=O)[C@H](CCCNC(=N)N)NC(=O)[C@H](CO)NC1=O

human MASP1 IC50 [1]: 1.53 nM | human MASP2 IC50 [2]: 140 nM
Binder: AICSRS[tBuAla]PPI[NMeC]IPD-NH2 (disulfide 3-11; also: HCl salt) [AIC+SRS-((tBu)A)-PPI-((N-Me)C)+IPD-NH2 (HCl salt)]

human MASP1 IC50 [1]: 1.5 nM | human MASP2 IC50 [2]: 100 nM
B9: AIC+SRS-((tBu)A)-PPI-((N-Me)C)+I-NH2 (peptide)
peptide: AICSRS[tBuAla]PPI[NMeC]I-NH2
modifications: disulfide 3-11; N-terminus assumed
SMILES: CC[C@H](C)[C@H](NC(=O)[C@@H]1CSSC[C@H](NC(=O)[C@@H](NC(=O)[C@H](C)N)[C@@H](C)CC)C(=O)N[C@@H](CO)C(=O)N[C@@H](CCCNC(=N)N)C(=O)N[C@@H](CO)C(=O)N[C@@H](CC(C)(C)C)C(=O)N2CCC[C@H]2C(=O)N2CCC[C@H]2C(=O)N[C@@H]([C@@H](C)CC)C(=O)N1C)C(N)=O

human MASP1 IC50 [3]: 2.5 nM
Binder: [dβPro]ICSRS[tBuAla]PPI[Pen]IPD-OH (disulfide 3-11) [(beta-p)-IC+SRS-((tBu)A)-PPI-(Pen)+IPD-OH]

human MASP1 IC50 [3]: 3.1 nM
B11: (Orn)-IC+SRS-((2R)-2-amino-3-(trifluoromethylsulfanyl)propanoic acid)-PPI-(Pen)+IPD-OH (peptide)
peptide: [Orn]ICSRS[X10]PPI[Pen]IPD-OH
modifications: disulfide 3-11; N-terminus assumed
SMILES: CC[C@H](C)[C@H](NC(=O)[C@@H](N)CCCN)C(=O)N[C@H]1CSSC(C)(C)[C@@H](C(=O)N[C@H](C(=O)N2CCC[C@H]2C(=O)N[C@@H](CC(=O)O)C(=O)O)[C@@H](C)CC)NC(=O)[C@H]([C@@H](C)CC)NC(=O)[C@@H]2CCCN2C(=O)[C@@H]2CCCN2C(=O)[C@H](CSC(F)(F)F)NC(=O)[C@H](CO)NC(=O)[C@H](CCCNC(=N)N)NC(=O)[C@H](CO)NC1=O

human MASP1 IC50 [1]: 1.7 nM | human MASP2 IC50 [2]: 87 nM
B12: RIC+SRS-((tBu)A)-PPI-((N-Me)C)+I-NH2 (peptide)
peptide: RICSRS[tBuAla]PPI[NMeC]I-NH2
modifications: disulfide 3-11; N-terminus assumed
SMILES: CC[C@H](C)[C@H](NC(=O)[C@@H]1CSSC[C@H](NC(=O)[C@@H](NC(=O)[C@@H](N)CCCNC(=N)N)[C@@H](C)CC)C(=O)N[C@@H](CO)C(=O)N[C@@H](CCCNC(=N)N)C(=O)N[C@@H](CO)C(=O)N[C@@H](CC(C)(C)C)C(=O)N2CCC[C@H]2C(=O)N2CCC[C@H]2C(=O)N[C@@H]([C@@H](C)CC)C(=O)N1C)C(N)=O
